In publication PMC5809530, “Resculpting the binding pocket of APC superfamily LeuT-fold amino acid transporters” (Cellular and Molecular Life Sciences: CMLS, 2017):

Legend:
[1] = substrate: N[C@@H](CO)C(=O)O; test: cells, lysate or membranes; settings: transport Km, Na+-free, pH 5.5, about 22 °C, labelled compound, 0.01-20 mM serine
[2] = substrate: O=C(O)[C@@H]1CCCN1; test: cells, lysate or membranes; settings: transport Km, Na+-free, pH 5.5, about 22 °C, labelled compound, a second Km was measured by TEVC at -60 mV

| Protein | Km [1] [µM] | Km [2] [µM] |
| --- | --- | --- |
| CG1139 (Drosophila melanogaster) (protein) MNDDIKTVTVYPTTLELTTPTKSANGSNDDYDPHQHRELKNPTTNFQTFAHFLKASVGTGVLAMPSAFAHAGYVNGTLLTLIIGSLALYCLHILIKCMYILCKRQRVPYVSFSQAMNLGLKQGPPWLRCLAPIAVPFVDGFLAFYHFGICCVYVVFIAESIKQLVDEYLVVWDVRIHMCIIIVPLLLIYSIKNLKLLAPFSSAANLLLLVGFGIILYYIFEELPPLSERDPFVAAGKLPTFFGTVLFALEAVGVILAIEENMATPKSFVGPCGILNSGMSIVLGLYVLLGFFGYWKYGNESEGSITLNIPQSEIPAQVVKVFFAITTWISYALQGYVTAHILWDKYLAKRFKETRQTFYELIFRAIIVLLTFGCAVAIPDLSVFLSLVGSFCLSILGLIFPVLLQICVQYTEGYGPFRIKLIINLLLLCFGIFGGVVGTYVSILDIIAVYK | 1310 ± 120 | 1030 ± 180 |
| PAT2 (SLC36A2) (Rattus norvegicus; F159I) (protein) MSVTKSAGSPQVAATVKLDLVSFPESAKKVQSQDPNPVNGSSSESSEKTKGITGFQTLVHLVKGNMGTGILGLPLAVKNAGILMGPLSLLVMGLIACHCMHILVRCAQRFCHRLNKPFMDYGDTVMHGLASSPNTWLQSHAHWGRHAVSFFLIVTQLGICCVYIVFLADNLKQVVEAVNSTTISCHKNETVVLTPTIDSRLYMLAFLPVLGLLVFIRNLRVLTIFSLLANVSMLVSLVIIGQYIIQGIPDPSQLPLVASWKTYPLFFGTAIFSFESIGVVLPLENKMKDARRFPTILSLGMSIITTLYIAIGALGYLRFGDDIKASITLNLPNCWLYQSVKLLYVVGILCTHALQFYVPAEIIIPLAVSQVSKRWALPVDLSIRLALVCVTCMLAILIPRLDLVLSLVGSVSSSALALIIPPLLEVTTYYGEGMSPLTITKDALISILGFMGFVVGTYQALDELIRSGNSLPLSNSTMFIQ | 823 ± 202 | – |
